In one assay the target is T1, B-cat-Halo (UniProt P35222 1-781).
T1 sequence (looked up): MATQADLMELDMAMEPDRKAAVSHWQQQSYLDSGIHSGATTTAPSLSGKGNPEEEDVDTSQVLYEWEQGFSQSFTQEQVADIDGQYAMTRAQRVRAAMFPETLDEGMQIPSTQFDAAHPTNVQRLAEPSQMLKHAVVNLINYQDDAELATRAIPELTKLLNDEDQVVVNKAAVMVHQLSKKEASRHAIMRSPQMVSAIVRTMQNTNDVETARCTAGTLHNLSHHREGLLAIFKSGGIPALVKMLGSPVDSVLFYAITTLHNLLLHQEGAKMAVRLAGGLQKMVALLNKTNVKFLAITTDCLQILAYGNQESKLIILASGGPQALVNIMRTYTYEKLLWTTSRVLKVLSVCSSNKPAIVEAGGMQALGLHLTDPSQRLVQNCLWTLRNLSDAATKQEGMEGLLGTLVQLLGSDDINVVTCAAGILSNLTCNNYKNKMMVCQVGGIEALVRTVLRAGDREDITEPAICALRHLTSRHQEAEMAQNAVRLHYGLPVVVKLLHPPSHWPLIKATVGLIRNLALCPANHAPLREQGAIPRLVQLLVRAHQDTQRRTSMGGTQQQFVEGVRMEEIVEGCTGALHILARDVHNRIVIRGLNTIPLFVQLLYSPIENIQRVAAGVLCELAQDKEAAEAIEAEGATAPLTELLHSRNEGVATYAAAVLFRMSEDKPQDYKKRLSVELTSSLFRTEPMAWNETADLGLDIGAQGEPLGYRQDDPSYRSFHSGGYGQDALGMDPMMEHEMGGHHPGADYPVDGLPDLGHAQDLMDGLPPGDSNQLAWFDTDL
Briefly: cell-based or functional assay.

Assay [1] concerns the target T2, full-length beta-Catenin (Uniprot ID P35222) (Homo sapiens (Human), UniProt P35222 1-781).
T2 construct: Tags are not described; Also used here as the target of the DLD1 TCF reporter read-out (endogenous beta-catenin in DLD1 cells); also called bCat; B-Catenin
T2 sequence: T1 sequence (looked up)
Put plainly: fluorescence polarization competition; full-length beta-catenin with 5FAM-TCF4(10-53) probe, peptide titrated. The method, then:
(§1) The plate was incubated protected from light for 60 minutes at 20° C. prior to read. Reads were performed on a CLARIOstar plate reader (BMG Labtech) in duplicate, and data were fitted to a 1:1 binding model with hill slope using an in-house script. All provided concentrations are final concentrations.
(In fluorescence polarisation assays a small probe gives low polarisation when free and higher when bound to something large.)

Assay [2] deals with T3, full-length beta-Catenin (Uniprot ID P35222) (Homo sapiens (Human), UniProt P35222 1-781).
T3 construct: also called bCat; B-Catenin
T3 sequence: T1 sequence (looked up)
Put plainly: fluorescence polarization competition; peptide titrated against 10 nM full-length beta-catenin + 10 nM 5FAM-TCF4(10-53). How it is done:
as §1

Assay [3] deals with T4, full-length beta-Catenin (Uniprot ID P35222) (Homo sapiens (Human), UniProt P35222 2-781).
T4 construct: also called bCat; B-Catenin
T4 sequence: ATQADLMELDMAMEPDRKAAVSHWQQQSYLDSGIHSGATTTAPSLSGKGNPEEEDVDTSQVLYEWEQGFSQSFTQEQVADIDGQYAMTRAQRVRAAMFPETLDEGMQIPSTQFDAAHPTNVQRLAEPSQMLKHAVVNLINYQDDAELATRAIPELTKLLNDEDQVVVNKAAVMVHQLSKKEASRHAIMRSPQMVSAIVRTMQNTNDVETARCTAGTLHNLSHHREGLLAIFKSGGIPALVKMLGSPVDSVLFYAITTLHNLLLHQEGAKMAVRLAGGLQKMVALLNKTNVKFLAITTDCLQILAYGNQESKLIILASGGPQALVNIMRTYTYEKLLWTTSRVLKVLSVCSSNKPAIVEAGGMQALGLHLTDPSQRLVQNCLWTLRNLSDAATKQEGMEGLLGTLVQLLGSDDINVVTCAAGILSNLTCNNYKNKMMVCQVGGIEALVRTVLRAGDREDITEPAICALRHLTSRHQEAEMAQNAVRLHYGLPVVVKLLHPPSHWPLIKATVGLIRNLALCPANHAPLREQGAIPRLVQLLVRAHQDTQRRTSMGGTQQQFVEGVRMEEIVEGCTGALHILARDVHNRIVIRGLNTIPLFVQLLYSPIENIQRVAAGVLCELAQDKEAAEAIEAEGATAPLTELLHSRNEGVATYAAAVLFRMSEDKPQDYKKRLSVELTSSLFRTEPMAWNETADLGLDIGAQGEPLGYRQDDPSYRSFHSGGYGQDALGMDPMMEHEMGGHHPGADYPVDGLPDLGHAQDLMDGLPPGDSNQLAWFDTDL
Put plainly: fluorescence polarization competition, 5FAM-TCF4 10-53 probe on full-length beta-catenin. The method, then:
as §1

The target in another assay is T5, beta-catenin (Homo sapiens (Human), UniProt P35222 1-781).
T5 construct: The FP protocol says full-length beta-Catenin (Uniprot ID P35222); also called full-length beta-Catenin; bCat
T5 sequence: T1 sequence (looked up)
Briefly: fluorescence polarization competition; full-length beta-catenin with 5FAM-TCF4(10-53) probe as competitor. The method, boiled down: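 Readings followed a light-protected 60-minute incubation at 20° C. Each read was done in duplicate. Curves were fit with a 1:1 binding model including hill slope, and stated concentrations are final.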

Starred links: 1 amine or outer side, 2 acyl side, 3 side chain; linkers in the order of their positions; H or OH if unused. Positions of bridges follow the written chain, without caps; N, C: chain ends. Non-standard residues stand in square brackets, D forms with d. Primed or numbered codes have the meaning given here. PyrS2″ = (S)-3-amino-1-((pent-4-en-1-yloxy)carbonyl)pyrrolidine-3-carboxylic acid (stapling residue), C=CCCCOC(=O)N1CC[C@@](N[*:1])(C(=O)[*:2])C1; B5(16) = 2-amino-2-(pent-4-en-1-yl)hept-6-enoic acid = 2,2-bis(4-pentenyl)glycine (stitching residue), C=CCCCC(CCCC=C)(N[*:1])C(=O)[*:2]; B5(4) = 2,2-bis(4-pentenyl)glycine = 2-amino-2-(pent-4-en-1-yl)hept-6-enoic acid (stitching residue), C=CCCCC(CCCC=C)(N[*:1])C(=O)[*:2]; PyrS2 = (S)-3-amino-1-((pent-4-en-1-yloxy)carbonyl)pyrrolidine-3-carboxylic acid, C=CCCCOC(=O)N1CC[C@@](N[*:1])(C(=O)[*:2])C1; B5 = 2-amino-2-(pent-4-en-1-yl)hept-6-enoic acid, C=CCCCC(CCCC=C)(N[*:1])C(=O)[*:2]; Phe(2-Cl) = N[C@@H](Cc1ccccc1Cl)C(=O)O; Bta = N[C@@H](Cc1csc2ccccc12)C(=O)O; αAllylPro = C=CC[C@@]1(C(=O)O)CCCN1; hSer = N[C@@H](CCO)C(=O)O Where only a bound is given, the exact number is not on record here.

B1: I-1047 (peptide)
peptide: Ac-[αAllylPro]DF[B5(16)]DDAAFN[PyrS2″][Phe(2-Cl)][Bta]S-NH2
modifications: staple 1-4, 4-11
notes: also called Ac-PL3-Asp-Phe-B5-Asp-Asp-Ala-Ala-Phe-Asn-PyrS2-2C1F-BztA-Ser-NH2
Regarding B1, the “NanoBRET Abs IC50” value with B-cat-Halo is 28400 nM. For the same molecule, the IC50 (commonly the concentration at which inhibition is half-maximal) in assay [1] is 5 nM.

B2: I-1043 (peptide)
peptide: Ac-[αAllylPro]DF[B5(16)]DDAAFT[PyrS2″][Phe(2-Cl)][Bta]Q-NH2
modifications: staple 1-4, 4-11
notes: also called Ac-PL3-Asp-Phe-B5-Asp-Asp-Ala-Ala-Phe-Thr-PyrS2-2C1F-BztA-Gln-NH2
With B2, in the assay with B-cat-Halo, the “NanoBRET Abs IC50” value is above 20000 nM. The IC50 in assay [1] amounted to 12 nM.

B3: I-1051 (peptide)
peptide: Ac-[αAllylPro]DF[B5(4)]DDAAFS[PyrS2][Phe(2-Cl)][Bta]S-NH2
modifications: staple 1-4, 4-11
notes: also called Ac-PL3-Asp-Phe-B5-Asp-Asp-Ala-Ala-Phe-Ser-PyrS2-2C1F-BztA-Ser-NH2
As to B3, in the assay with B-cat-Halo, the “NanoBRET Abs IC50” value is above 20000 nM. Besides, the IC50 in assay [1] was 14 nM.

B4: I-1045 (peptide)
peptide: Ac-[αAllylPro]DF[B5(16)]DDAAFS[PyrS2″][Phe(2-Cl)][Bta]Q-NH2
modifications: staple 1-4, 4-11
notes: also called Ac-PL3-Asp-Phe-B5-Asp-Asp-Ala-Ala-Phe-Ser-PyrS2-2C1F-BztA-Gln-NH2
For B4, the “NanoBRET Abs IC50” value with B-cat-Halo is 23900 nM. Besides, the IC50 in assay [1] stood at 5 nM.

B5: I-358 (peptide)
peptide: XDAXDDAAFVXFAQ
modifications: not fully specified; N-terminal Ac; PL3 at 1, B5 at 4, S8 at 11 (staples 1-4 and 4-11 by olefin metathesis); C-terminal NH2
notes: Stapled peptide; also called Ac-PL3-Asp-Ala-B5-Asp-Asp-Ala-Ala-Phe-Val-S8-Phe-Ala-Gln-NH2
On to B5, for which the IC50 in assay [2] stood at 5000 nM.

B6: I-1142 (peptide)
peptide: Ac-[αAllylPro]DF[B5]DDAAFS[PyrS2][Phe(2-Cl)][Bta][dT]-NH2
modifications: staple 1-4, 4-11
notes: Stapled (stitched) peptide by olefin metathesis; E/Z isomer(s) of the staples not assigned
On to B6, for which the EC50 – broadly, the concentration needed to bring the measured effect to its halfway point – in assay [3] came to 22 nM.

B7: I-1141 (peptide)
peptide: Ac-[αAllylPro]DF[B5]DDAAFS[PyrS2][Phe(2-Cl)][Bta]T-NH2
modifications: staple 1-4, 4-11
notes: as for B6
As to B7, a half-maximal effect in assay [3] (EC50) was put at 13 nM.

B8: I-1145 (peptide)
peptide: Ac-[αAllylPro]DF[B5]DDAAFL[PyrS2][Phe(2-Cl)][Bta]T-NH2
modifications: staple 1-4, 4-11
notes: as for B6
On to B8, for which the EC50 in assay [3] was 18 nM.

B9: I-1144 (peptide)
peptide: Ac-[αAllylPro]DF[B5]DDAAFS[PyrS2][Phe(2-Cl)][Bta]L-NH2
modifications: staple 1-4, 4-11
notes: as for B6
B9 registered an EC50 in assay [3] of 28 nM.

B10: I-1146 (peptide)
peptide: Ac-[αAllylPro]DF[B5]DDAAFL[PyrS2][Phe(2-Cl)][Bta][dT]-NH2
modifications: staple 1-4, 4-11
notes: as for B6
In turn, B10 returned an EC50 in assay [3] of 33 nM.

B11: I-1143 (peptide)
peptide: Ac-[αAllylPro]DF[B5]DDAAFS[PyrS2][Phe(2-Cl)][Bta][hSer]-NH2
modifications: staple 1-4, 4-11
notes: as for B6
For B11, the EC50 in assay [3] was found to be 12 nM.
Consider Ac-[αAllylPro]DL[B5(4)]DDAAFL[PyrS2″][Phe(2-Cl)][Bta]L-NH2 (staple 1-4, 4-11; also: staple isomer composition of later HPLC peak, stapled peptide) [I-1419], for which, in the assay with beta-catenin, the EC50 amounted to 152 nM.

B12: I-354 (peptide)
peptide: XDAXDDAAAVXFWQ
modifications: not fully specified; N-terminal Ac; PL3 at 1, B5 at 4, S8 at 11 (staples 1-4 and 4-11 by olefin metathesis); C-terminal NH2
notes: Stapled peptide; also called Ac-PL3-Asp-Ala-B5-Asp-Asp-Ala-Ala-Ala-Val-S8-Phe-Trp-Gln-NH2
Consider B12, for which the IC50 in assay [2] was found to be 5000 nM.

The values above are taken from patent US20240116985A1 (published 2024).
